B1: Complement C1r subcomponent (Homo sapiens), P00736 (parent)
chain: MWLLYLLVPALFCRAGGSIPIPQKLFGEVTSPLFPKPYPNNFETTTVITVPTGYRVKLVFQQFDLEPSEGCFYDYVKISADKKSLGRFCGQLGSPLGNPPGKKEFMSQGNKMLLTFHTDFSNEENGTIMFYKGFLAYYQAVDLDECASRSKSGEEDPQPQCQHLCHNYVGGYFCSCRPGYELQEDTHSCQAECSSELYTEASGYISSLEYPRSYPPDLRCNYSIRVERGLTLHLKFLEPFDIDDHQQVHCPYDQLQIYANGKNIGEFCGKQRPPDLDTSSNAVDLLFFTDESGDSRGWKLRYTTEIIKCPQPKTLDEFTIIQNLQPQYQFRDYFIATCKQGYQLIEGNQVLHSFTAVCQDDGTWHRAMPRCKIKDCGQPRNLPNGDFRYTTTMGVNTYKARIQYYCHEPYYKMQTRAGSRESEQGVYTCTAQGIWKNEQKGEKIPRCLPVCGKPVNPVEQRQRIIGGQKAKMGNFPWQVFTNIHGRGGGALLGDRWILTAAHTLYPKEHEAQSNASLDVFLGHTNVEELMKLGNHPIRRVSVHPDYRQDESYNFEGDIALLELENSVTLGPNLLPICLPDNDTFYDLGLMGYVSGFGVMEEKIAHDLRFVRLPVANPQACENWLRGKNRMDVFSQNMFCAGHPSLKQDACQGDSGGVFAVRDPNTDRWVATGIVSWGIGCSRGYGFYTKVLNYVDWIKKEMEEED
partner: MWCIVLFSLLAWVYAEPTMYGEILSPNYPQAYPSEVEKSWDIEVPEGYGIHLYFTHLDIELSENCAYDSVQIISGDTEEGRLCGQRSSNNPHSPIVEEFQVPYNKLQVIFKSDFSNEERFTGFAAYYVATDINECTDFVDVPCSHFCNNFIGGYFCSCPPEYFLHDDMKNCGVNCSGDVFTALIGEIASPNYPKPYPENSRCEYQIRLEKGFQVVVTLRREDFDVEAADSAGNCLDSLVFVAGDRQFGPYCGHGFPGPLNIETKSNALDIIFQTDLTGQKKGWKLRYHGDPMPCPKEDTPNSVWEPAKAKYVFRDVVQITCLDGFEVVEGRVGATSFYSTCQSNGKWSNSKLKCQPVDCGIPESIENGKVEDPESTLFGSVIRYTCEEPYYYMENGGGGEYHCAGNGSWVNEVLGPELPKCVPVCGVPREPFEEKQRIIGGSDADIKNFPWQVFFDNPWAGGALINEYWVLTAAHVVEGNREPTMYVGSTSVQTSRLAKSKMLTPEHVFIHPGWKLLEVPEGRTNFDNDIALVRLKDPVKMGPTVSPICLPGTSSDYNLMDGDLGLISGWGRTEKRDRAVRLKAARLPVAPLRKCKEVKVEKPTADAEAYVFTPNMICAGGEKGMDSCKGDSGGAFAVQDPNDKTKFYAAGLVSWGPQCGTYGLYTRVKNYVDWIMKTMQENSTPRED

Variants of: B1
Conditions: with c1s_human C1S

effect of a mutation on the interaction	Variant
with no effect	D290G

— IntAct's records for PubMed 31749804
